Measured values published in patent publication US20090252724A1 (Hoffmann-La Roche, published 2009).

Key:
[1] = biological target: T1, Aβ1-40 fibers (human); assay: SPR (Biacore), Aβ1-40 fibers on CM5, Scatchard; high affinity (bivalent) KD; experimental equilibrium responses
T1 construct: Synthetic peptide aggregated to fibers in vitro (200 µg/ml, 10 mM Na-acetate pH 4.0, 3 days, 37 °C) and coupled to a CM5 chip; also called Aβ1-40 fibrils; fibrillar Aβ40
Experimental: (§1) Binding of ANTIBODY A to fibrillar Aβ was measured online by surface plasmon resonance (SPR), and the affinities of the molecular interactions were determined as follows: Biacore2000 and Biacore3000 instruments were used for these measurements. Aβ1-40 and Aβ1-42 fibers were generated in vitro by incubation of synthetic peptides at a concentration of 200 μg/ml in 10 mM Na-acetate buffer (pH 4.0) for three days at 37° C. Electron microscopic analysis confirmed a fibrillar structure for both peptides, Aβ1-40 showing predominantly shorter (<1 micron) and Aβ1-42 predominantly longer (>1 micron) fibers. These fibers were assumed to represent aggregated Aβ peptides in human AD brain more closely than ill-defined mixtures of amorphous aggregates and unstructured precipitates. The fibers were diluted 1:10 and directly coupled to a CM5 as described in the Instruction Manual of the manufacturer (BIAapplication Handbook, version AB, Biacore AB, Uppsala, 1998).
(§2) This coupling procedure included an activation step, during which the carboxylic acid groups on the surface were transferred into chemically reactive succinimide ester groups by contacting the surface with an aqueous mixture of N-hydroxysuccinimide and 1-ethyl-1-(3-[…])-carbodiimide hydrochloride, and an immobilization step, during which the activated surface was contacted with the fibres dissolved in 10 mM acetate buffer (pH 4.5) at 200-350 resonance units (1 resonance unit (RU) corresponds approximately to a surface loading of 1 picogram/mm²). The fiber loaded surface was then contacted with the antibody solutions in the concentration range 200 nM≧C≧0.15 nM. Typical time dependent response curves (=sensograms) monitored during the association phase (during contact with buffer) and the dissociation phase (subsequent contact with buffer) are shown in FIG. 7.
(§3) Briefly, KD values were calculated by Scatchard type analysis using concentration dependent equilibrium binding responses. These equilibrium binding constants could be obtained in two ways.

[2] = biological target: T1, Aβ1-40 fibers; assay: SPR (Biacore), Aβ1-40 fibers on CM5, Scatchard; low affinity (monovalent) KD; experimental equilibrium responses
Experimental: as §1, §2, §3

[3] = biological target: T1, Aβ1-40 fibers; assay: SPR (Biacore), Aβ1-40 fibers on CM5, Scatchard; high affinity (bivalent) KD; extrapolated equilibrium responses; stdev 0.10
Experimental: (§4) Binding of ANTIBODY A to fibrillar Aβ was measured online by surface plasmon resonance (SPR), and the affinities of the molecular interactions were determined as follows: Biacore2000 and Biacore3000 instruments were used for these measurements. Aβ1-40 and Aβ1-42 fibers were generated in vitro by incubation of synthetic peptides at a concentration of 200 μg/ml in 10 mM Na-acetate buffer (pH 4.0) for three days at 37° C. Electron microscopic analysis confirmed a fibrillar structure for both peptides, Aβ1-40 showing predominantly shorter (<1 micron) and Aβ1-42 predominantly longer (>1 micron) fibers. […]
as §2, with “The fiber loaded surface was then contacted with the antibody solutions in the concentration range 200 nM≧C≧0.15 nM.” left out, “7. […]” for “7.”

[4] = biological target: T1, Aβ1-40 fibers; assay: SPR (Biacore), Aβ1-40 fibers on CM5, Scatchard; low affinity (monovalent) KD; extrapolated equilibrium responses; stdev 8.40
Experimental: as §4
as §2, with “The fiber loaded surface was then contacted with the antibody solutions in the concentration range 200 nM≧C≧0.15 nM.” left out, “7. […]” for “7.”

[5] = biological target: T1, Aβ1-40 fibers; assay: SPR (Biacore), Aβ1-40 fibers on CM5, Scatchard; high affinity (bivalent) KD; extrapolated equilibrium responses; stdev 0.03
Experimental: as §4
as §2, with “The fiber loaded surface was then contacted with the antibody solutions in the concentration range 200 nM≧C≧0.15 nM.” left out, “7. […]” for “7.”

[6] = biological target: T1, Aβ1-40 fibers; assay: SPR (Biacore), Aβ1-40 fibers on CM5, Scatchard; low affinity (monovalent) KD; extrapolated equilibrium responses; stdev 0.15
Experimental: as §4
as §2, with “The fiber loaded surface was then contacted with the antibody solutions in the concentration range 200 nM≧C≧0.15 nM.” left out, “7. […]” for “7.”

[7] = biological target: T1, Aβ1-40 fibers; assay: SPR (Biacore), Aβ1-40 fibers on CM5, Scatchard; high affinity (bivalent) KD; extrapolated equilibrium responses; stdev 0.02
Experimental: as §4
as §2, with “The fiber loaded surface was then contacted with the antibody solutions in the concentration range 200 nM≧C≧0.15 nM.” left out, “7. […]” for “7.”

[8] = biological target: T1, Aβ1-40 fibers; assay: SPR (Biacore), Aβ1-40 fibers on CM5, Scatchard; low affinity (monovalent) KD; extrapolated equilibrium responses; stdev 22.33
Experimental: as §4
as §2, with “The fiber loaded surface was then contacted with the antibody solutions in the concentration range 200 nM≧C≧0.15 nM.” left out, “7. […]” for “7.”

Row | Kd [1] [nM] | Kd [2] [nM] | Kd [3] [nM] | Kd [4] [nM] | Kd [5] [nM] | Kd [6] [nM] | Kd [7] [nM] | Kd [8] [nM] | Binder
1 | 0.41 | 21 | 0.49 | 27.2 |  |  |  |  | ANTIBODY A COMPOSITION (mixture of mono- and double-glycosylated ANTIBODY A) (antibody, human IgG1, kappa, V domains shown, N-linked glycan at Asn52 (VH CDR2) on one or on both heavy chains (mixture of the two isoforms); N-linked glycan at Asn306 (Fc), also called Mixture of mono- and double-glycosylated ANTIBODY A isoforms (1:1)) VH: QVELVESGGGLVQPGGSLRLSCAASGFTFSSYAMSWVRQAPGKGLEWVSAINASGTRTYYADSVKGRFTISRDNSKNTLYLQMNSLRAEDTAVYYCARGKGNTHKPYGYVRYFDVWGQGTLVTVSS VL: DIVLTQSPATLSLSPGERATLSCRASQSVSSSYLAWYQQKPGQAPRLLIYGASSRATGVPARFSGSGSGTDFTLTISSLEPEDFATYYCLQIYNMPITFGQGTKVEIKR
2 | 0.42 | 2.82 |  |  | 0.19 | 1.99 |  |  | non-glycosylated ANTIBODY A (antibody, human IgG1, kappa, V domains shown, Asn52 not glycosylated; N-linked glycan at Asn306 (Fc), Human IgG1 kappa, made in CHO cells; no glycan in the variable region; also called non-glycosylated ANTIBODY A isoform; non-glycosylated isoform) VH: QVELVESGGGLVQPGGSLRLSCAASGFTFSSYAMSWVRQAPGKGLEWVSAINASGTRTYYADSVKGRFTISRDNSKNTLYLQMNSLRAEDTAVYYCARGKGNTHKPYGYVRYFDVWGQGTLVTVSS VL: DIVLTQSPATLSLSPGERATLSCRASQSVSSSYLAWYQQKPGQAPRLLIYGASSRATGVPARFSGSGSGTDFTLTISSLEPEDFATYYCLQIYNMPITFGQGTKVEIKR
3 | 1.54 | 29 |  |  |  |  | 1.43 | 18.5 | double-glycosylated ANTIBODY A (antibody, human IgG1, kappa, V domains shown, N-linked glycan at Asn52 (VH CDR2) on both heavy chains; N-linked glycan at Asn306 (Fc), Human IgG1 kappa, made in CHO cells, separated by cation exchange chromatography; also called double-glycosylated ANTIBODY A isoform; double-glycosylated isoform) VH: QVELVESGGGLVQPGGSLRLSCAASGFTFSSYAMSWVRQAPGKGLEWVSAINASGTRTYYADSVKGRFTISRDNSKNTLYLQMNSLRAEDTAVYYCARGKGNTHKPYGYVRYFDVWGQGTLVTVSS VL: DIVLTQSPATLSLSPGERATLSCRASQSVSSSYLAWYQQKPGQAPRLLIYGASSRATGVPARFSGSGSGTDFTLTISSLEPEDFATYYCLQIYNMPITFGQGTKVEIKR
